Results on 5 substances are retold here after paper PMC7026020.

Assay [1] addresses membrane FcγRIIIA (human) (UniProt P08637). The assay is described as follows: flow cytometry on cells. (In general: Flow cytometry measures light scatter and fluorescence of single cells or particles in a stream.)
For assay [2] the target is unchanged. In words: flow cytometry on cells; competition: CD16-transduced NK92 cells (2 x 10^4) incubated with FITC-conjugated anti-CD16 3G8 (1:100) and increasing concentrations of TmAbs or sc-TmAbs, 30 min at 4°C; percent inhibition of 3G8 binding.

Sequence of UniProt P08637 (P08637 17-208): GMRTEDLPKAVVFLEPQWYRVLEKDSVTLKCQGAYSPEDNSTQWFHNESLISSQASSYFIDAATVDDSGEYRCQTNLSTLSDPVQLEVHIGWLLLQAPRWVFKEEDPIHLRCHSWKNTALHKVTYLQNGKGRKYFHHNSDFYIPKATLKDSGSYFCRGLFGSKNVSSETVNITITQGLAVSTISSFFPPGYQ

Consider cetuximab (antibody), for which the maximal percent inhibition of 3G8 binding (at 3 mg/mL) in assay [1] is 80%.
With infliximab (antibody), the maximal percent inhibition of 3G8 binding (at 3 mg/mL) in assay [2] turned out to be 80%.
The substance trastuzumab (antibody) gave a maximal percent inhibition of 3G8 binding (at 3 mg/mL) in assay [1] of 80%.
On the same count and under the same terms, the same measure for rituximab (antibody): 80%; for ipilimumab (antibody): 80%.
